The target in assay [1] is recombinant Trypanosoma cruzi trans-sialidase (construct not stated for these experiments) (Trypanosoma cruzi) (UniProt Q26966).
For assay [2], the target named is T1, recombinant Trypanosoma cruzi trans-sialidase (construct not stated for these experiments) (Trypanosoma cruzi, strain  …, UniProt Q26966).
T1 construct: trans-sialidase, Trypanosoma cruzi, GenBank L26499; enzymatically active recombinant TS; also called T. cruzi TS; source: E. coli BL21, purified (Ni-charged Hi-Trap Chelating HP, MonoQ)
In words: ITC; raw data not shown; done in the laboratory of Dr. Alan Cooper; conditions not stated. The following applies: both partners purified. For orientation: ITC needs no label: the signal is the heat of the interaction.

Assay [3] addresses T1, recombinant Trypanosoma cruzi …. In words: SPR; BIAcore 2000; purified mAb 13G9 amine-coupled to a CM5 chip; TS (1 nM to 10 µM) injected at 50 µl/min in HBS-EP (150 mM NaCl, 0.05% P20, 10 mM HEPES pH 7.4); KD calculated from the kinetic constants; apparent. The following applies: both partners purified.
The target is the same in assay [4]. In words: cell-based or functional assay.

B1: Fab fragment of mAb 13G9 (Fab, V domains shown)
VH: VKLQQSGVELVRPGTSVKMSCKAVGYTFTYDWIGWVKQRPGHGLEWIGDIYLGGGYINYNEKFKGKVILTADTSSSTAYMQLSSLTSEDSAIYYCARGHYDGSYFDYWGQGTTLTVSS
VL: DVLMTQTPTIMSASIGEEITLTCSASSSVSHMHWYQHKSGTSPKLLIYITSYLASGVPSRFSGSGSGTFYSLTISSVEAEDAADYYCHQWSTFPSTFGSGTKLEIK
With B1, in assay [1], the IC50 of inhibition of TS activity (remnant activity of 2 ng TS with sialyllactose and [14C]-lactose, increasing amounts of purified Fab) came to 1.6 nM.

B2: TS-neutralizing mouse monoclonal antibody 13G9 (IgG2aκ) (antibody, V domains shown)
VH: B1 VH
VL: B1 VL
notes: they are those of the Fab heavy chain in PDB 3OPZ (chain H; also I and J); rest of the mouse IgG2a heavy chain constant region beyond the Fab (hinge, CH2, CH3); the antibody was typed as IgG2aκ; they are those of the Fab light chain in PDB 3OPZ (chain L; also M and N); also called mAb 13G9; 13G9 mAb; source: 13G9 hybridoma culture supernatant; purified (Protein A-Sepharose, MonoQ) or used as …
For B2, the results for the Kd in assay [2] and in assay [3] were less than 1 nM and roughly 0.72 nM, respectively. The “IC50 of inhibition of TS activity (remnant activity of 2 ng TS with sialyllactose and [14C]-lactose, increasing amounts of whole 13G9 IgG)” value in assay [4] came out at 0.056 nM.
